According to patent publication US5869641:

Molecular target: CD4 (extracellular domain, aa 1-370) (Homo sapiens) (UniProt P01730)
Test: flow
Settings: 2'-F on all C and U; +-0.08; multimeric SA-PE complex, 3.2 RNA per SA-PE; L200-CD4 beads, PBS, 2 mM MgCl2, BSA, room temp

GGGAGACAAGAAUAAACGCUCAANNNNNNNNNNNNNNNNNNNNNNNNNNNNNNNNNNNNNNNNUUCGACAGGAGGCUCACAACAGGC [15th round enriched RNA pool]
Kd: 1.5 nM
